These results are taken from patent EP0787148B1.

The assay addresses REK7 (endogenous, on rat E16 cortical neurons) (rat). Description: cell-based or functional assay.

As to “soluble AL-1 (purified from BT20 conditioned medium) (ligand)”, the tyrosine autophosphorylation of REK7 (immunoprecipitation with anti-REK7, anti-phosphotyrosine blot) was 2 fold.
